116 sequences from the supplement of paper PMC10724198 can be followed below.

± gives the standard deviation of the averaged measurements.
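Also: PSI is a weighted mean of sequencing reads over stability bins, variants kept only with over 10 reads, mCherry proximal and sfGFP distal, peptide attached via GGGS linker.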

For this data set, the system named is Saccharomyces cerevisiae. Nature of the data set: protein stability index of tFT-peptide fusion (C-terminal peptide) (PSI (0-1 scale)); higher = more stable (slower turnover). The conditions noted are these: genetic background: wild type; temperature: 30 C.
SSLPSSLSPLTS: the protein stability index is 0.699 ± 0.024.
As for SSLRSFPLLEHT, the protein stability index was 0.6857 ± 0.0012.
In the case of SSLSFHPLPLAP it was 0.695 ± 0.03.
As to SSLSPGFPLPSS, the protein stability index worked out at 0.6989 ± 0.0014.
In the case of SSLTCLLFPPGY it was 0.695 ± 0.012.
As for SSNKSKNNHSNM, the protein stability index turned out to be 0.688 ± 0.031.
In the case of SSNVTVLGVLYC it was 0.6973 ± 0.0049; in that of SSPAPPPPSPAS, 0.744 ± 0.043; in that of SSPAYPYWTRIF, 0.777 ± 0.14.
Next, SSPFPPLTTPSP: 0.7245 ± 0.0044.
Next, SSPFPVPLSRPS: 0.6759 ± 0.0032; SSPLTPAPLCSS: 0.702 ± 0.1; SSPLYSLLVLFQ: 0.54 ± 0.037.
SSPPFPLSLPLY registered a protein stability index of 0.682 ± 0.0017.
In the case of SSPTSSAPPPFL it was 0.697 ± 0.022; in that of SSPYPGNVVTST, 0.7133 ± 0.0015.
Next, SSRAGVRRPHSR: 0.685 ± 0.053; SSRCRGYLFVDG: 0.738 ± 0.043; SSRELVDGVGIA: 0.763 ± 0.068.
In the case of SSRVALRIPGIG it was 0.678 ± 0.024; in that of SSRVWPRRRSTA, 0.634 ± 0.052; in that of SSSLSRLIPRDV, 0.774 ± 0.062.
For the sequence SSSPFVSDFLTL, the protein stability index was found to be 0.673 ± 0.042.
Take SSSPLPPLRLCL: the protein stability index was 0.743 ± 0.041.
In turn, SSTLVAFRFPSP showed a protein stability index of 0.7014 ± 0.0043.
SSWWGARVARRG showed a protein stability index of 0.756 ± 0.041.
Next, SSYGPAKSLGCA: 0.684 ± 0.023; STASSFFFFCCF: 0.664 ± 0.026.
Next, STCVRSRTCETP: 0.675 ± 0.021; STGAVGVSVCEG: 0.64 ± 0.022; STGPFFMIKGSF: 0.72 ± 0.027.
In the case of STGRTSVNLCFS it was 0.706 ± 0.041; in that of STPFALVFLPFP, 0.688 ± 0.034.
Consider STPHPPPILHVL, for which the protein stability index stood at 0.581 ± 0.013.
In the case of STPPPRSLPSPP it was 0.716 ± 0.045; in that of STRGGLCFLRWV, 0.5543 ± 0.0019; in that of STSLLTRTSSKL, 0.792 ± 0.015.
In the case of STTCPTGLTVGR it was 0.69 ± 0.054; in that of STVESPNSLPPL, 0.676 ± 0.037; in that of STVGRFPLSFHH, 0.726 ± 0.062.
In the case of STWSLLKVGPAR it was 0.6785 ± 0.0015.
Turning to SVAPRPPFPFAI, the protein stability index is 0.694 ± 0.026.
In the case of SVAQHLRNGNMC it was 0.745 ± 0.13.
As for SVAWGGGVVEWG, the protein stability index was found to be 0.661 ± 0.11.
Next, SVDRVIPQERQS: 0.697 ± 0.013; SVGCRRGMDSRV: 0.702 ± 0.04.
For the sequence SVGIWSYGLCWF, the protein stability index worked out at 0.753 ± 0.055.
Next, SVGQWSGGRACW: 0.751 ± 0.043; SVGSSGFMLFCL: 0.741 ± 0.18.
SVHTQLSPMDTT showed a protein stability index of 0.64 ± 0.018.
For the sequence SVILRMIGQKIK, the protein stability index stood at 0.596 ± 0.038.
Next, SVIRTRYSSARM: 0.662 ± 0.057; SVKESKIQQNRE: 0.705 ± 0.11.
On to SVLRRKDKGKRG, for which the protein stability index was determined as 0.654 ± 0.014.
In the case of SVLVCSAIVIRK it was 0.5998 ± 0.00079; in that of SVLVHSFRSVNV, 0.66 ± 0.002; in that of SVPPPPRTPSSI, 0.666 ± 0.03.
Next, SVRSVFVFGVIK: 0.664 ± 0.017; SVRSYYVRSMLE: 0.692 ± 0.076.
In the case of SVRVRKGRYDNK it was 0.707 ± 0.018.
SVSGRYYAVRVR displayed a protein stability index of 0.566 ± 0.0072.
Next, SVSVLSPPPLPP: 0.636 ± 0.015; SVVFSQCLVNLG: 0.659 ± 0.062.
The sequence SVVLGSVHVLTR yielded a protein stability index of 0.661 ± 0.015.
In the case of SVWGGVPLVRET it was 0.6854 ± 0.0015; in that of SWAFAGGGAATG, 0.694 ± 0.011.
In the case of SWFSPMCTTSPR it was 0.677 ± 0.04; in that of SWFVGFEGAVGG, 0.7563 ± 0.0046.
Next, SWHTSRPPPPPF: 0.656 ± 0.013; SWPDVCLTSPLS: 0.731 ± 0.042.
On to SWQSRISLRIST, for which the protein stability index was 0.648 ± 0.041.
In the case of SWTWLFGFRRGL it was 0.746 ± 0.11; in that of SWVIRSDLHYAL, 0.731 ± 0.032; in that of SYLDWFLVLDMF, 0.6706 ± 0.0047.
In the case of SYLFRLLFATLP it was 0.601 ± 0.033.
Next, SYLTQNGYAFRQ: 0.644 ± 0.082; SYNYMSIVMYRL: 0.587 ± 0.0071.
SYRLILGSSPHP displayed a protein stability index of 0.619 ± 0.089.
Next, SYSPRRRLNTPR: 0.699 ± 0.058; TACIVGLRLMRL: 0.787 ± 0.063.
Turning to TAFGLMRQPCMG, the protein stability index was 0.657 ± 0.052.
TAGIIINCPIYL returned a protein stability index of 0.596 ± 0.038.
In turn, TAHPCVYRRGAV yielded a protein stability index of 0.675 ± 0.021.
Next, TALGLILSSFVY: 0.595 ± 0.067; TALGVCPRVMQN: 0.718 ± 0.039.
In the case of TALKNLPSVSSV, the protein stability index turned out to be 0.712 ± 0.1.
In the case of TALQNAAPRTAS it was 0.73 ± 0.11; in that of TARGIRGICKSI, 0.711 ± 0.021; in that of TASVDQAVRWRG, 0.708 ± 0.054.
In the case of TAYRFYSYESSF it was 0.678 ± 0.082; in that of TCDGSCRRGDLR, 0.663 ± 0.066; in that of TCLIFTCVLKFR, 0.485 ± 0.098.
Next, TCPDSVMDRLDS: 0.696 ± 0.12.
The sequence TCRGGNPFRACC gave a protein stability index of 0.707 ± 0.054.
As for TCVLYSSGFIYF, the protein stability index turned out to be 0.665 ± 0.065.
Regarding TDGLGGGVVGRE, the protein stability index was 0.664 ± 0.011.
Next, TDIRMRRLNRDT: 0.684 ± 0.029.
In turn, TDISPRFVSVYL gave a protein stability index of 0.656 ± 0.017.
As to TEDGSYGESEQA, the protein stability index was determined as 0.642 ± 0.023.
Next, TEREAKKKKSKI: 0.704 ± 0.026; TFAALRVFSFLS: 0.666 ± 0.052; TFALAPLPPLPS: 0.68 ± 0.032.
Next, TFCPPSRYRPRA: 0.709 ± 0.008; TFFPPLPPPSPS: 0.702 ± 0.012; TFINVHRFCSAI: 0.647 ± 0.024.
Next, TFISNYSCILSL: 0.644 ± 0.013; TFPSADLYYSLL: 0.74 ± 0.049; TFSIACIPSSHK: 0.652 ± 0.025.
For TFTSTTLARPFS, the protein stability index was 0.831 ± 0.036.
Next, TGAGGPGPRNRK: 0.774 ± 0.064.
In the case of TGKHDIAQEQTK it was 0.679 ± 0.028.
Next, TGLLGLVGSQVP: 0.67 ± 0.016; TGMYHSQPYPAA: 0.677 ± 0.0071.
On to TGRERLAEGDWR, for which the protein stability index turned out to be 0.692 ± 0.019.
Next, TGRWRWMRDLLS: 0.63 ± 0.032; TGVFFPPQLPLP: 0.69 ± 0.023.
